Two molecules from US20150118260A1 (GENERAL HOSPITAL, published 2015) can be followed below.

In assay [1] the target is T1, porcine CD80 on the porcine CD80-expressing B-cell lymphoma cell line LCL13271-5E4 (porcine).
T1 construct: whole, on cells; The cell line was picked as CD80-expressing by staining with hamster anti-mouse CD80 mAb 16-10A1; CD86 on these cells is not addressed; also called LC13271-5E4
Description: flow cytometry on LCL13271-5E4 cells, MFI against concentration of biotinylated protein, non-linear least-squares fit. For orientation: In flow cytometry, cells or beads pass a laser one at a time.

Assay [2] addresses T2, human CD80 on the human CD80-expressing leukemia cell line THP-1 (human, UniProt P33681 35-288).
T2 construct: whole, on cells
T2 sequence (looked up): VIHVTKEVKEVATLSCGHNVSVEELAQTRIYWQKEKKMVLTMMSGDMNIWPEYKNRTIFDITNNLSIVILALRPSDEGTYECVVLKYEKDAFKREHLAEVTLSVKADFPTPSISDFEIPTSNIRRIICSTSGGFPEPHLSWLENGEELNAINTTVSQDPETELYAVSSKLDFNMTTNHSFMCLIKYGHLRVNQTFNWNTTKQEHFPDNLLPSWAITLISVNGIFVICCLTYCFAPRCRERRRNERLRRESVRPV
Description: flow cytometry with biotinylated soluble porcine CTLA-4 on THP-1 cells.

B1: glycosylated soluble porcine CTLA-4 carrying 6xHis tag in the C-terminus (aa 38-161, 124 aa + 6xHis) (receptor)
chain: MHVAQPAVVLANSRGVASFVCEYGSAGKAAEVRVTVLRRAGSQMTEVCAATYTVEDELTFLDDSTCTGTSTENKVNLTIQGLRAVDTGLYICKVELLYPPPYYVGMGNGTQIYVIDPEPCPDSDHHHHHH
modifications: N-glycosylated completely or partially (Pichia pastoris); labeled with Sulfo-NHS biotin in the direct binding and KD assays, non-biotinylated in the blocking assay
notes: Expressed in Pichia pastoris X33; The entry includes the 6xHis tag; also called pCTLA-4-Gly; pCTLA4-6xHis
In general, Kd refers to the constant that tells how readily two partners part at equilibrium. B1 yielded a Kd in assay [1] of 13 nM. Also, the binding result in assay [2] is given as “no binding”.

B2: non-N-glycosylated soluble porcine CTLA-4 carrying 6xHis tag (aa 38-161, 124 aa + 6xHis; N76A, N108A) (receptor)
chain: MHVAQPAVVLANSRGVASFVCEYGSAGKAAEVRVTVLRRAGSQMTEVCAATYTVEDELTFLDDSTCTGTSTENKVALTIQGLRAVDTGLYICKVELLYPPPYYVGMGAGTQIYVIDPEPCPDSDHHHHHH
modifications: labeled with Sulfo-NHS biotin in the direct binding and KD assays, non-biotinylated in the blocking assay
notes: also called pCTLA-4-Non-N-Gly; non-N-glycosylated porcine soluble CTLA-4
As to B2, binding in assay [1] was put at a Kd of 13 nM. Besides, the binding result in assay [2] was “no binding”.
